Measurements as given in IntAct's records for PubMed 29039417.

B1: BBSome complex member BBS4 (Homo sapiens), Q96RK4 (parent)
chain: MAEERVATRTQFPVSTESQKPRQKKAPEFPILEKQNWLIHLHYIRKDYEACKAVIKEQLQETQGLCEYAIYVQALIFRLEGNIQESLELFQTCAVLSPQSADNLKQVARSLFLLGKHKAAIEVYNEAAKLNQKDWEISHNLGVCYIYLKQFNKAQDQLHNALNLNRHDLTYIMLGKIHLLEGDLDKAIEVYKKAVEFSPENTELLTTLGLLYLQLGIYQKAFEHLGNALTYDPTNYKAILAAGSMMQTHGDFDVALTKYRVVACAVPESPPLWNNIGMCFFGKKKYVAAISCLKRANYLAPFDWKILYNLGLVHLTMQQYASAFHFLSAAINFQPKMGELYMLLAVALTNLEDIENAKRAYAEAVHLDKCNPLVNLNYAVLLYNQGEKKNALAQYQEMEKKVSLLKDNSSLEFDSEMVEMAQKLGAALQVGEALVWTKPVKDPKSKHQTTSTSKPASFQQPLGSNQALGQAMSSAAAYRTLPSGAGGTSQFTKPPSLPLEPEPAVESSPTETSEQIREK
partner: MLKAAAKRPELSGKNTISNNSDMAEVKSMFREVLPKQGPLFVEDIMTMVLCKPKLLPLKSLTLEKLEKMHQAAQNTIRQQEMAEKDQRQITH

Variants of: B1
Conditions: with bbip1_human BBIP1, A8MTZ0

Variant | effect of a mutation on the interaction
N375K | with no effect
N377C | disrupting interaction strength
N377E | with no effect
N377I | disrupting interaction strength
N377S | disrupting interaction strength
Y378A | with no effect
A379V | disrupting interaction strength
V380A | disrupting interaction strength
L381E | with no effect
L381K | with no effect
L381P | disrupting interaction strength
L382A | with no effect
L382E | with no effect
L382K | with no effect
Y383A | with no effect
N384E | with no effect
Q385E | with no effect
G386A | with no effect
E387A | with no effect
E387K | with no effect
K388A | with no effect
N390E | with no effect
N390L | disrupting interaction strength
A391K | with no effect
A391V | disrupting interaction strength
Q394E | with no effect

Variant | effect of a mutation on the interaction
Q394K | with no effect
Y395A | with no effect
Y395H | disrupting interaction strength
Q396A | with no effect
Q396E | with no effect
E397K | with no effect
M398K | with no effect
E399A | with no effect
E399K | with no effect
K400A | with no effect
K400E | with no effect
V402K | with no effect
S403A | with no effect
L404A | with no effect
L404K | with no effect
L405E | with no effect
L405K | with no effect
K406E | with no effect
D407E | with no effect
N408A | with no effect
S409A | with no effect
S409E | with no effect
S410K | with no effect
L411K | with no effect
E412A | with no effect
E412K | with no effect

Variant | effect of a mutation on the interaction
F413A | with no effect
F413E | with no effect
F413K | with no effect
D414A | with no effect
S415A | with no effect
S415E | with no effect
S415K | with no effect
M417K | with no effect
V418E | with no effect
V418K | with no effect
M420A | with no effect
M420E | with no effect
M420K | with no effect
A421K | with no effect
A421V | disrupting interaction strength
Q422A | with no effect
Q422K | with no effect
G425A | with no effect
A426E | with no effect
A427K | with no effect
L428E | with no effect
L428P | disrupting interaction strength
Q429E | with no effect
Q429K | with no effect

Second part, the variant after the results:

effect of a mutation on the interaction | Variant
with no effect | L376A
with no effect | L376E
with no effect | L376K
disrupting interaction strength | L376P
disrupting interaction strength | L376R
with no effect | N377A
disrupting interaction strength | N377D
with no effect | N377K
disrupting interaction strength | N377R
with no effect | Y378E
with no effect | Y378K
with no effect | A379E
with no effect | A379K
with no effect | V380E
with no effect | V380K
with no effect | L381A
disrupting interaction strength | L382P
with no effect | Y383E
with no effect | Y383K
with no effect | N384A
with no effect | N384K
disrupting interaction strength | N384Y
with no effect | Q385A
with no effect | Q385K
with no effect | G386E

effect of a mutation on the interaction | Variant
with no effect | G386K
disrupting interaction strength | E387G
with no effect | K388E
with no effect | K389A
with no effect | K389E
with no effect | N390A
with no effect | N390K
with no effect | A391E
disrupting interaction strength | A391T
with no effect | L392A
with no effect | L392E
with no effect | L392K
disrupting interaction strength | L392P
with no effect | Q394A
disrupting interaction strength | Q394L
disrupting interaction strength | Q394R
with no effect | Y395E
with no effect | Y395K
with no effect | Q396K
with no effect | E397A
with no effect | M398A
with no effect | M398E
with no effect | K401A
disrupting interaction strength | K401E
disrupting interaction strength | K401V

effect of a mutation on the interaction | Variant
with no effect | V402A
with no effect | V402E
with no effect | S403E
with no effect | S403K
with no effect | L404E
with no effect | L405A
with no effect | K406A
with no effect | D407A
with no effect | D407K
with no effect | N408E
with no effect | N408K
with no effect | S409K
with no effect | S410A
with no effect | S410E
with no effect | L411A
with no effect | L411E
with no effect | D414E
with no effect | D414K
with no effect | E416A
with no effect | E416K
with no effect | M417A
with no effect | M417E
with no effect | V418A
with no effect | E419A
with no effect | E419K

effect of a mutation on the interaction | Variant
with no effect | A421E
with no effect | Q422E
with no effect | K423A
with no effect | K423E
disrupting interaction strength | L424A
with no effect | L424E
with no effect | L424K
disrupting interaction strength | L424S
with no effect | G425E
with no effect | G425K
with no effect | A426K
with no effect | A427E
with no effect | L428A
with no effect | L428K
with no effect | Q429A
with no effect | V430A
with no effect | V430E
with no effect | V430K
with no effect | G431A
with no effect | G431E
with no effect | G431K
with no effect | E432A
with no effect | E432K
